Here are results for eleven compounds from US5767078A, “Agonist peptide dimers” (priority 1995, dated 1998).

Like-named read-outs stand apart in the source and are kept apart here. Bridge positions count the residues as written; N and C are the ends. Ends that are not written are not given here. Peptide text beside a SMILES is read from it. Some results are limits rather than exact numbers.

Broadly, the IC50 is the concentration needed to halve the response being measured.

In experiment [1] the target is T1, truncated human EPO receptor (Homo sapiens, UniProt P19235).
T1 construct: expressed in transfected cells; host or cells: FDC-P1/trER cells (murine FDC-P1 derived)
T1 sequence (P19235 25-468 limits assumed): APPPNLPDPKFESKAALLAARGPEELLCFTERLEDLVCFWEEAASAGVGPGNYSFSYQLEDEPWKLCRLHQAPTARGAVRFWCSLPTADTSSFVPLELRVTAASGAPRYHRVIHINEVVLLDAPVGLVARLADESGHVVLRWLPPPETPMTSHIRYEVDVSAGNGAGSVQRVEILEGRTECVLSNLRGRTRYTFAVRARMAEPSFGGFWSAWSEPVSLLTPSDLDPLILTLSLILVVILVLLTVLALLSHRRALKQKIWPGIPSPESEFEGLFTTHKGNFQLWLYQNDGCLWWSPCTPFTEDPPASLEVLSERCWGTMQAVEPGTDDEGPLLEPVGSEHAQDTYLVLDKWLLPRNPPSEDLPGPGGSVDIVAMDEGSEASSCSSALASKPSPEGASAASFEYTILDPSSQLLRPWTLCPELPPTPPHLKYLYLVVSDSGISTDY
Briefly: EPO dependent cell proliferation assay, FDC-P1/trER cells. The experiment is classed as cell-based. The note with it: for EC50: read-out: EPO-ED50 truncated human receptor; for change in potency of dimer versus parent monomer (in parentheses), truncated human receptor: ratio of ED50 values. How it is done:
(§1) After 24 hours, the cells were counted, resuspended at 800,000 cells/ml and dispensed at 40,000 cells/well. Stock solutions of the peptide dimer (5 mM in PBS) and peptide (10 mM in DMSO) were prepared and dispensed in triplicate to final concentrations of 1×10^-10 M through 1×10^-5 M and adjusted to a final volume of 0.2 ml. […] After a 42 hr incubation at 37° C. (ca. 2 cell doublings) 1 μCi/well of [^3 H] thymidine was added and the incubation continued for 6 hr at which time the cells were harvested and counted to assess [^3 H]thymidine incorporation as a measure of cell proliferation.

The target in the next experiment is T2, murine EPO receptor (Mus musculus, UniProt P14753).
T2 construct: expressed in transfected cells; host or cells: FDC-P1/ER cells
T2 sequence (P14753 25-507): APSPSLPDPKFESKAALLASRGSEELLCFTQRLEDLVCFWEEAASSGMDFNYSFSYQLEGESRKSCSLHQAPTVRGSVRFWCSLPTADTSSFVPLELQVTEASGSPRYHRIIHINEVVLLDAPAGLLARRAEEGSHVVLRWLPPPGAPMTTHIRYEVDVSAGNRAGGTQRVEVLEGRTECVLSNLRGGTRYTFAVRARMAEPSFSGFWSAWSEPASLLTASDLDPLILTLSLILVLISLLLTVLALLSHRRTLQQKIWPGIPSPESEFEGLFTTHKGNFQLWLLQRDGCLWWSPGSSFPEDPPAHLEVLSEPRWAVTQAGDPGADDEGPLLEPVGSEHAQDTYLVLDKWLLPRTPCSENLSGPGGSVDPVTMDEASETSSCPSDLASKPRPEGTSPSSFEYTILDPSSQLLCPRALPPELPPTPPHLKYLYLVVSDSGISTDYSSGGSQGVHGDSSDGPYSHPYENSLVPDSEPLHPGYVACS
In words: EPO dependent cell proliferation assay, FDC-P1/ER cells. It counts as cell-based. The note with it: for EPO-ED50 murine receptor / change in potency of dimer versus parent monomer (in parentheses), murine receptor: FDC-P1/ER; for EPO-ED50 murine receptor: [3H]thymidine incorporation, amount giving half of maximal activity obtained with EPO; for change in potency of dimer versus parent monomer (in parentheses), murine receptor: ratio of ED50 values. On the procedure:
as §1
On the technique in general: Uptake of a labelled nucleoside into DNA is a usual measure of proliferation.

For experiment [2], the target named is T3, extracellular domain of the human erythropoietin receptor (EPO binding protein, EBP) (Homo sapiens, UniProt P19235).
T3 construct: made in house; host or cells: E. coli
T3 sequence (P19235 25-250 limits assumed): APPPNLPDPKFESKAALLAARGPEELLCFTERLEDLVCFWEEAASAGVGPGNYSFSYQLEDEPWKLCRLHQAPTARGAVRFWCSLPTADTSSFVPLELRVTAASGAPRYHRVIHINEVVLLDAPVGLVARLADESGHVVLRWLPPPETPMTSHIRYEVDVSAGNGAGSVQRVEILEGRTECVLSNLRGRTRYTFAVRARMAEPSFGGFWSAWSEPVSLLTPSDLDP
In words: Immobilized EBP based [125I]EPO competition binding assay. The settings on record: for Relative Binding (binding relative to Seq. I. D. No. 8): IC50 in [125I]EPO competition on EBP beads, relative to Seq. I. D. No. 8 (IC50 5 μM). How it is done: The iodoacetyl activation chemistry of Sufolink beads (Pierce Chemical Co, Rockford, Ill.) is specific for free thiols and assures that the linkage is not easily reversible. EBP-Sulfolink beads were made as follows: SulfoLink gel suspension (10 ml) was mixed with of coupling buffer (40 ml: 50 mM Tris, pH 8.3, 5 mM EDTA) and the gel was allowed to settle. […] The mixture was rocked gently for 30 minutes at room temperature and the beads were allowed to settle for 1 hour at room temperature. The supernatant was removed and retained. The beads were washed twice with 20 ml of coupling buffer. The washes were recovered as well. The beads were then treated with 20 ml of 0.05M cysteine for 30 minutes at room temperature to block unbound sites. Finally, the beads were washed with 50 ml of 1M NaCl, then with 30 ml of PBS, and resuspended in 20 ml of PBS and stored at 4° C. The amount of EBP which was covalently bound to the beads was determined by comparing the OD280 of the original EBP solution to the total OD280 recovered in the reaction supernatant and the two 20 ml washes.
Competitive binding analysis assays of candidate peptides and dimer peptides were performed as outlined below. Individual peptides were dissolved in DMSO to prepare a stock solution […]. Dimer peptides were contained within PBS at a concentration of 5 mM.
Initial assay points with no added peptide were included in each assay to determine total binding. Binding mixtures were incubated overnight at room temperature with gentle rocking. The beads were then collected using Micro-columns (Isolab, Inc.) and washed with 3 mL of wash buffer. The columns containing the washed beads were placed in 12×75 mm glass tubes and bound radioactivity levels determined in a gamma counter.

The mark [3] stands for this setting: FDC-P1/trER, [3H]thymidine incorporation, amount giving half of maximal activity obtained with EPO.

Regarding `CC(C)C[C@@H]1NC(=O)[C@@H]2CCCN2C(=O)CNC(=O)[C@H](Cc2ccccc2)NC(=O)[C@H](Cc2c[nH]cn2)NC(=O)[C@@H](NC(=O)[C@H](CO)NC(=O)[C@H](Cc2ccc(O)cc2)NC(=O)[C@@H](NC(=O)CNC(=O)CN)[C@@H](C)O)CSSC[C@@H](C(=O)N[C@@H](CCCCN)C(=O)N2CCC[C@H]2C(=O)N[C@@H](CCC(N)=O)C(=O)NCC(=O)NCC(N)=O)NC(=O)[C@H](C(C)C)NC(=O)[C@H](Cc2c[nH]c3ccccc23)NC(=O)[C@H]([C@@H](C)O)NC1=O` [Seq. I. D. No. 8] (H-GGTYSCHFGPLTWVCKPQGG-NH2; disulfide 6-15), the EC50 in experiment [1] came to 0.09 µM.
`CC(C)C[C@@H]1NC(=O)[C@@H]2CCCN2C(=O)CNC(=O)[C@H](Cc2ccccc2)NC(=O)[C@H](Cc2c[nH]cn2)NC(=O)[C@@H](NC(=O)[C@@H](N)CO)CSSC[C@@H](C(=O)N[C@@H](CCCCN)C(N)=O)NC(=O)[C@H](C(C)C)NC(=O)[C@H](Cc2c[nH]c3ccccc23)NC(=O)[C@H]([C@@H](C)O)NC1=O` [peptide (SEQ ID NO: 18)] (H-SCHFGPLTWVCK-NH2; disulfide 2-11): on murine EPO receptor (cell line not given), the “activity in the in vitro cell proliferation assay (in words)” value was “inactive”.
For the compound “Ac-GGTYSCHFGPLTWVCKPQGG (Ac-GGTYSCHFGPLTWVCKPQGG-NH2; disulfide 6-15 (inferred)) [Seq. I. D. No. 20]”, the “Relative Binding (binding relative to Seq. I. D. No. 8)” value in experiment [2] is reported as 4. Further, the EPO-ED50 murine receptor in the experiment with murine EPO receptor is 0.03 µM. Moreover, the EC50 in experiment [1] (setting [3]) was determined as 0.06 µM.
In the experiment with murine EPO receptor, “GGLYACHMGPMTWVCQPLRG [Seq. I. D. No. 14]” gave an EPO-ED50 murine receptor of 0.1 µM. Also, the EC50 in experiment [1] (setting [3]) stood at 0.08 µM.
For the compound “SAP2/Seq. I. D. No. 8 covalent dimer #1: PEG (SPA2, MW ca. 3400) dimer of peptide GGTYSCHFGPLTWVCKPQGG, lot #1, Example 2 (GGTYSCHFGPLTWVCKPQGG-NH2; disulfide 6-15 (inferred); not fully specified)”, the “Relative Binding (binding relative to Seq. I. D. No. 8)” value in experiment [2] is on record as 4. Besides, in experiment [2] (concentration reducing [125I]EPO binding to EBP beads by 50%, 0.5 nM [125I]EPO), the IC50 came out at 20 µM. Besides, in the experiment with murine EPO receptor, the “increase in potency versus parent peptide, murine receptor line” value was 10 fold; the EPO-ED50 murine receptor came to 0.01 µM; the “change in potency of dimer versus parent monomer (in parentheses), murine receptor” value (shortened to “change in potency … murine receptor”) was 10 X. Also, the “ED50, cell line containing the murine EPO receptor” value in the experiment with murine EPO receptor (text of Example 11) worked out at 0.01 µM. The “increase in potency versus parent peptide, human receptor line” value in experiment [1] is recorded as roughly 60 fold. Moreover, the EC50 in experiment [1] (setting [3]) is 0.0015 µM. The “change in potency of dimer versus parent monomer (in parentheses), truncated human receptor” value (shortened to “change in potency … truncated human receptor”) in experiment [1] (FDC-P1/trER) is recorded as 60 X. Also, in experiment [1] (text of Example 11), the “ED50, cell line containing the human EPO receptor” value was 1.5 nM.
As for “SAP2/Seq. I. D. No. 8 covalent dimer #2: PEG (SPA2, MW ca. 3400) dimer of peptide GGTYSCHFGPLTWVCKPQGG, lot #2, Example 3 (GGTYSCHFGPLTWVCKPQGG-NH2; disulfide 6-15 (inferred); not fully specified)”, in experiment [2], the “Relative Binding (binding relative to Seq. I. D. No. 8)” value was 3. In the experiment with murine EPO receptor, the “increase in potency versus parent peptide, murine receptor line” value is given as 10 fold; the EPO-ED50 murine receptor came out at 0.01 µM; the “change in potency … murine receptor” value was 10 X. Moreover, in experiment [1], the “increase in potency versus parent peptide, human receptor line” value came to 45 fold. In addition, the EC50 in experiment [1] (setting [3]) worked out at 0.002 µM. Further, in experiment [1] (FDC-P1/trER), the “change in potency … truncated human receptor” value came out at 45 X.
Consider “SAP2/Seq. I. D. No. 13 covalent dimer: PEG (SPA2) dimer of peptide GGTYSCHFGPLTWVCKPQ, Example 4 (GGTYSCHFGPLTWVCKPQ-NH2; disulfide 6-15 (inferred); also: PEG (SPA2) covalent dimer)”, for which the EC50 in experiment [1] (setting [3]) was found to be 0.002 µM. For the same compound, the “change in potency … truncated human receptor” value in experiment [1] (FDC-P1/trER) was 10 X.
On to “SAP2/Seq. I. D. No. 20 covalent dimer: PEG (SPA2) dimer of peptide Ac-GGTYSCHFGPLTWVCKPQGG, Example 5 (Ac-GGTYSCHFGPLTWVCKPQGG-NH2; disulfide 6-15 (inferred); also: PEG (SPA2) covalent dimer)”, for which the “Relative Binding (binding relative to Seq. I. D. No. 8)” value in experiment [2] is listed as 12. Also, in the experiment with murine EPO receptor, the EPO-ED50 murine receptor stood at 0.2 µM and the “change in potency … murine receptor” value is recorded as -7 X. For the same compound, the EC50 in experiment [1] (setting [3]) was 0.05 µM.
For “dimeric peptide: PEG (SPA2) dimer of peptide SCHFGPLTWVCK (SEQ ID NO: 18), Example 7 (SCHFGPLTWVCK-NH2; disulfide 2-11 (inferred); also: PEG (SPA2) covalent dimer)”, the “proliferation (cpm) relative to background” value in experiment [1] (10^-5 M, human EPO receptor cell line, FIG. 8) was “twice as many cpm as background”.
With “mPEG/Seq. I. D. No. 8, peak #1: mono-PEG conjugate of peptide SEQ ID NO: 8 with m-SPA-PEG (MW ca. 5000), one PEG coupled; control (GGTYSCHFGPLTWVCKPQGG-NH2; disulfide 6-15 (inferred); not fully specified; also: one mPEG 5000 (m-SPA-PEG) conjugated, site not given here) [reference compound]”, the “Relative Binding (binding relative to Seq. I. D. No. 8)” value in experiment [2] is reported as 60. Moreover, in the experiment with murine EPO receptor, the EPO-ED50 murine receptor is 2 µM. In experiment [1] (setting [3]), the EC50 came to 0.1 µM.
As to “mPEG/Seq. I. D. No. 8, peak #2: conjugate of peptide SEQ ID NO: 8 with m-SPA-PEG (MW ca. 5000), two PEG molecules coupled; control (GGTYSCHFGPLTWVCKPQGG-NH2; disulfide 6-15 (inferred); not fully specified; also: two mPEG 5000 (m-SPA-PEG) conjugated, sites not given here) [reference compound]”, the “Relative Binding (binding relative to Seq. I. D. No. 8)” value in experiment [2] was greater than 40. In addition, the EPO-ED50 murine receptor in the experiment with murine EPO receptor worked out at 1 µM. Moreover, in experiment [1] (setting [3]), the EC50 turned out to be 0.4 µM.
